Experiments:
Experiment in all cases: IEDB peptide-MHC binding, purified MHC/competitive/radioactivity; filed as Kd, often an IC50 or EC50 that approximates it; ≥ and ≤ were set here for values at or beyond the usual limits of such assays
HLA-A*31:01 = molecular target: HLA-A*31:01
HLA-A*11:01 = molecular target: HLA-A*11:01
HLA-A*68:01 = molecular target: HLA-A*68:01
HLA-A*03:01 = molecular target: HLA-A*03:01
HLA-A*33:01 = molecular target: HLA-A*33:01
[1] = source organism: Vaccinia virus WR
[2] = source organism: Vaccinia virus Copenhagen
[3] = source organism: SARS coronavirus Tor2
[4] = source organism: Lassa virus Josiah
[5] = source organism: Dengue virus 1 Brazil/97-11/1997
[6] = source organism: Dengue virus 2 Jamaica/1409/1983
[7] = source organism: Dengue virus 3 Martinique/1243/1999
[8] = source organism: Dengue virus 1 Nauru/West Pac/1974
[9] = source organism: Dengue virus 4 Philippines/H241/1956

Sequence | Kd (HLA-A*31:01; [1]) [nM] | Kd (HLA-A*11:01; [1]) [nM] | Kd (HLA-A*68:01; [1]) [nM] | Kd (HLA-A*03:01; [1]) [nM] | Kd (HLA-A*33:01; [1]) [nM] | further results
KLDNHDILTY | 9280 | 602 | 16400 | 104 | ≥ 70000 | 
KLVYIFEPEK | 9210 | 154 | 1690 | 53.7 | ≥ 70000 | 
KQMYRKFSR |  |  |  |  |  | Kd (HLA-A*31:01; [2]): 4.97 nM; Kd (HLA-A*11:01; [2]): 78.8 nM; Kd (HLA-A*68:01; [2]): 1210 nM; Kd (HLA-A*03:01; [2]): 209 nM; Kd (HLA-A*33:01; [2]): 2130 nM
KSAGFPFNK |  |  |  |  |  | Kd (HLA-A*31:01; [3]): 31.8 nM; Kd (HLA-A*11:01; [3]): 3.88 nM; Kd (HLA-A*68:01; [3]): 69.5 nM; Kd (HLA-A*03:01; [3]): 8.65 nM; Kd (HLA-A*33:01; [3]): 4890 nM
KSIQKNTIFK |  |  |  |  |  | Kd (HLA-A*11:01; source organism: Mammarenavirus machupoense): 5.35 nM
KTWMDIEGR |  |  |  |  |  | Kd (HLA-A*31:01; [4]): 120 nM; Kd (HLA-A*11:01; [4]): 1130 nM; Kd (HLA-A*68:01; [4]): 1820 nM; Kd (HLA-A*03:01; [4]): 8460 nM; Kd (HLA-A*33:01; [4]): 1710 nM
KVTEVKGYTK |  |  |  |  |  | Kd (HLA-A*11:01; [5]): 212 nM
KVVDLGCGR |  |  |  |  |  | Kd (HLA-A*31:01; [6]): 1.29 nM
LALGFFLRK |  |  |  |  |  | Kd (HLA-A*11:01; [7]): 9.58 nM; Kd (HLA-A*03:01; [7]): 3.33 nM
LITENKIWGR |  |  |  |  |  | Kd (HLA-A*31:01; [8]): ≥ 21100 nM
LIWAYLSKK | 931 | 101 | 214 | 21.4 | 4940 | 
LLSGHNLAK |  |  |  |  |  | Kd (HLA-A*31:01; [3]): 6690 nM; Kd (HLA-A*11:01; [3]): 90.9 nM; Kd (HLA-A*68:01; [3]): 6580 nM; Kd (HLA-A*03:01; [3]): 4.61 nM; Kd (HLA-A*33:01; [3]): ≥ 77700 nM
LMSAAIKDSK |  |  |  |  |  | Kd (HLA-A*03:01; [5]): 66.7 nM
LTAVCMKCFK | 38.8 | 7.88 | 3.9 | 29.8 | 2050 | 
LTRNPAWRK |  |  |  |  |  | Kd (HLA-A*31:01; [3]): 5020 nM; Kd (HLA-A*11:01; [3]): 3950 nM; Kd (HLA-A*68:01; [3]): 1420 nM; Kd (HLA-A*03:01; [3]): 222 nM; Kd (HLA-A*33:01; [3]): 1570 nM
LVCFPSTQR | 37.5 | 40.6 | 10.8 | 698 | 73 | 
MFMLIFNVK | 125 | 587 | 1340 | 1650 | 4020 | 
MISYGGGWR |  |  |  |  |  | Kd (HLA-A*68:01; [9]): 111 nM
MLNILNRRR |  |  |  |  |  | Kd (HLA-A*31:01; [6]): 8.37 nM
MLSIINKRKK |  |  |  |  |  | Kd (HLA-A*03:01; [7]): 524 nM
MSAAIKDNR |  |  |  |  |  | Kd (HLA-A*31:01; [6]): 8.82 nM; Kd (HLA-A*68:01; [6]): 14.4 nM
MSAAIKDQK |  |  |  |  |  | Kd (HLA-A*11:01; [9]): 480 nM; Kd (HLA-A*68:01; [9]): 50.9 nM
MVASDVCKK | 1680 | 153 | 65.8 | 266 | 6980 | 
MVSVSDFRDY | ≥ 70000 | 17700 | 3960 | ≥ 70100 | ≥ 70000 | 
NAKVGDDVK | 10100 | 389 | 478 | ≥ 78000 | 16900 | 
NARMATMLEY | 734 | 34.3 | 455 | 169 | ≥ 69100 | 

Sequence | Kd (HLA-A*31:01; [1]) [nM] | Kd (HLA-A*11:01; [1]) [nM] | Kd (HLA-A*68:01; [1]) [nM] | Kd (HLA-A*03:01; [1]) [nM] | Kd (HLA-A*33:01; [1]) [nM] | further results
NTMCTEETK | ≥ 77900 | 27.9 | 12.5 | ≥ 78000 | 15700 | 
NVPERQLILR | 87.8 | 323 | 0.0657 | 18700 | 2.86 | 
NVQFVDINR | 38.1 | 193 | 0.399 | ≥ 23000 | 12.7 | 
PIIVAGFSGK | ≥ 70000 | 761 | 3760 | 681 | ≥ 45600 | 
QLQLLMPLK |  |  |  |  |  | Kd (HLA-A*31:01; [3]): 1480 nM; Kd (HLA-A*11:01; [3]): 14.3 nM; Kd (HLA-A*68:01; [3]): 13400 nM; Kd (HLA-A*03:01; [3]): 151 nM; Kd (HLA-A*33:01; [3]): 2350 nM
QLVFNSISAR | 111 | 299 | 49.2 | 304 | 723 | 
QTPTKLMNK | ≥ 22700 | 306 | 178 | 210 | ≥ 77700 | 
RFNVAITRAK |  |  |  |  |  | Kd (HLA-A*31:01; [3]): 64 nM; Kd (HLA-A*11:01; [3]): 179 nM; Kd (HLA-A*68:01; [3]): 168 nM; Kd (HLA-A*03:01; [3]): 168 nM; Kd (HLA-A*33:01; [3]): 7770 nM
RIENEMKINR | 183 | 2570 | 803 | 5560 | 10800 | 
RLLACLCKHK |  |  |  |  |  | Kd (HLA-A*31:01; [3]): 25.2 nM; Kd (HLA-A*11:01; [3]): 7.15 nM; Kd (HLA-A*68:01; [3]): 8480 nM; Kd (HLA-A*03:01; [3]): 0.221 nM; Kd (HLA-A*33:01; [3]): 4450 nM
RLQLSNGNR |  |  |  |  |  | Kd (HLA-A*03:01; source organism: Homo sapiens): 407 nM
RNKRPRLCTR |  |  |  |  |  | Kd (HLA-A*31:01; source organism: Dengue virus 3 Sri Lanka/1266/2000): 51.9 nM
RTRDIYISRR |  |  |  |  |  | Kd (HLA-A*31:01; [4]): 28.1 nM; Kd (HLA-A*11:01; [4]): 4290 nM; Kd (HLA-A*68:01; [4]): 1700 nM; Kd (HLA-A*03:01; [4]): 393 nM; Kd (HLA-A*33:01; [4]): 725 nM
RVIDLGCGR |  |  |  |  |  | Kd (HLA-A*31:01; [7]): 1.21 nM
SQGAGWSLK |  |  |  |  |  | Kd (HLA-A*11:01; [6]): 77.7 nM
TLFVWYFWQK |  |  |  |  |  | Kd (HLA-A*11:01; [5]): 54.8 nM; Kd (HLA-A*03:01; [5]): 24.6 nM
TLSLDYAWK |  |  |  |  |  | Kd (HLA-A*03:01; [5]): 181 nM
TTKRDLGMSK |  |  |  |  |  | Kd (HLA-A*11:01; [7]): 115 nM
VLARWGTFK |  |  |  |  |  | Kd (HLA-A*11:01; [7]): 52.3 nM; Kd (HLA-A*03:01; [7]): 3.08 nM
VSILASSLLK |  |  |  |  |  | Kd (HLA-A*11:01; [6]): 26.2 nM; Kd (HLA-A*03:01; [6]): 9 nM
VSTGSQLAK |  |  |  |  |  | Kd (HLA-A*11:01; [5]): 332 nM; Kd (HLA-A*03:01; [5]): 127 nM
VSTVSQLAK |  |  |  |  |  | Kd (HLA-A*11:01; [8]): 248 nM
WYFWQKKKQR |  |  |  |  |  | Kd (HLA-A*33:01; [5]): 8.19 nM
YQNKVVRVQR |  |  |  |  |  | Kd (HLA-A*31:01; [6]): ≥ 36700 nM
YVFSGDPLK |  |  |  |  |  | Kd (HLA-A*11:01; [9]): 159 nM; Kd (HLA-A*68:01; [9]): 12.4 nM; Kd (HLA-A*03:01; [9]): 84.4 nM

— the Immune Epitope Database (IEDB)
